Where a chain is given by its changes, count along the chain named. Names may count otherwise.
Key:
[1] = target: T1, Halhy (D-amino acid transaminase from Haliscomenobacter hydrossis) (Haliscomenobacter hydrossis, UniProt F4KWH0); assay: X-ray crystal structure, […] Å; assay type: binding; conditions: covalent; Schiff base with K143; holo form, pH 4.8
T1 construct: gene Halhy_2446; N-terminal His6-TEV tag cut off with TEV protease; E. coli Rosetta(DE3) pLysS; codon-optimised synthetic gene; homodimer (about 62 kDa by gel filtration)

purified protein [2] = substrate: O=C(O)CCC(=O)C(=O)O; assay: purified protein; assay type: biochemical, Haliscomenobacter hydrossis; conditions: D-alanine 40 mM, 50 mM K-phosphate pH 8, 30 µM PLP
[3] = substrate: CC(C)CC(=O)C(=O)O; assay: steady-state kinetics of overall transamination; assay type: biochemical, Haliscomenobacter hydrossis; conditions: D-alanine 40 mM, 50 mM K-phosphate pH 8, 30 µM PLP, 40 °C
Excerpt: steady-state kinetics of overall transamination on Halhy (D-amino acid transaminase from Haliscomenobacter hydrossis)

purified protein [4] = substrate: N[C@H](CCC(=O)O)C(=O)O; assay: purified protein; assay type: biochemical, Haliscomenobacter hydrossis; conditions: pyruvate 2.5 mM, 50 mM K-phosphate pH 8, 30 µM PLP, 40 °C
purified protein [5] = substrate: CC(=O)C(=O)O; assay: purified protein; assay type: biochemical, Haliscomenobacter hydrossis; conditions: D-glutamate 4 mM, 50 mM K-phosphate pH 8, 30 µM PLP, 40 °C
purified protein [6] = substrate: C[C@@H](N)C(=O)O; assay: purified protein; conditions: α-ketoglutarate 5 mM, 50 mM K-phosphate pH 8, 30 µM PLP, 40 °C
[7] = substrate: CC(C)C[C@@H](N)C(=O)O; assay: steady-state kinetics of overall transamination (HPLC of 4-methyl-2-oxovalerate); assay type: biochemical, Haliscomenobacter hydrossis; conditions: α-ketoglutarate 5 mM, 50 mM K-phosphate pH 8, 30 µM PLP, 40 °C
Excerpt: steady-state kinetics of overall transamination (HPLC of 4-methyl-2-oxovalerate) on Halhy (D-amino acid transaminase from Haliscomenobacter hydrossis)

T1 sequence (F4KWH0 entry or part of it): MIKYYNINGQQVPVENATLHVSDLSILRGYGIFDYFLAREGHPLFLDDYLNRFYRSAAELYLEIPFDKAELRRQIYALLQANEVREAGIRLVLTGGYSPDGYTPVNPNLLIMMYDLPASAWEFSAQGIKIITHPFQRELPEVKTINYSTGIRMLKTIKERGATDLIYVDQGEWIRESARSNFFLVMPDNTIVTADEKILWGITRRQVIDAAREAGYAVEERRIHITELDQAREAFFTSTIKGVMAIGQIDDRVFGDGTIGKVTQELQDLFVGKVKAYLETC

In the case of `Cc1ncc(COP(=O)(O)O)c(C=O)c1O` [pyridoxal-5'-phosphate], the “X-ray crystal structure, 2.0 Å” value [1] is reported as “structure of WT Halhy in the holo form with a covalently bound PLP was determined”.

B1: Halhy (D-amino acid transaminase from Haliscomenobacter hydrossis) (Haliscomenobacter hydrossis DSM 1100; R179G) (protein)
chain: MIKYYNINGQQVPVENATLHVSDLSILRGYGIFDYFLAREGHPLFLDDYLNRFYRSAAELYLEIPFDKAELRRQIYALLQANEVREAGIRLVLTGGYSPDGYTPVNPNLLIMMYDLPASAWEFSAQGIKIITHPFQRELPEVKTINYSTGIRMLKTIKERGATDLIYVDQGEWIRESAGSNFFLVMPDNTIVTADEKILWGITRRQVIDAAREAGYAVEERRIHITELDQAREAFFTSTIKGVMAIGQIDDRVFGDGTIGKVTQELQDLFVGKVKAYLETC
notes: N-terminal His6-TEV tag cut off with TEV protease; E. coli Rosetta(DE3) pLysS; codon-optimised synthetic gene; homodimer (about 62 kDa by gel filtration)
For B1, the Km (purified protein [2]; 25 °C) was 8.1 ± 0.8 mM, the kcat (purified protein [2]; 25 °C) was 8.6 ± 0.6 s⁻¹ and the kcat/Km (purified protein [2]; 25 °C) was 1100 M⁻¹ s⁻¹.

B2: Halhy (D-amino acid transaminase from Haliscomenobacter hydrossis) (Haliscomenobacter hydrossis DSM 1100) (protein)
chain: B1 chain with G179R
notes: as for B1
Molecule B2 has a Km [3] of 70 ± 6 mM, a kcat [3] of 4.2 ± 0.1 s⁻¹ and a kcat/Km [3] of 60 M⁻¹ s⁻¹. For the same molecule, the Km (purified protein [2]; 40 °C) was 2.3 ± 0.2 mM, the kcat (purified protein [2]; 40 °C) was 146 ± 4 s⁻¹ and the kcat/Km (purified protein [2]; 40 °C) was 63000 ± 7000 M⁻¹ s⁻¹. For the same molecule, the Km (purified protein [4]) was 10.3 ± 0.7 mM, the kcat (purified protein [4]) was 215 ± 6 s⁻¹ and the kcat/Km (purified protein [4]) was 21000 ± 2000 M⁻¹ s⁻¹. For the same molecule, the Km (purified protein [5]) was 2.1 ± 0.1 mM, the kcat (purified protein [5]) was 215 ± 6 s⁻¹ and the kcat/Km (purified protein [5]) was 103000 ± 8000 M⁻¹ s⁻¹. The Km (purified protein [6]) was 23 ± 1 mM, the kcat (purified protein [6]) was 146 ± 4 s⁻¹ and the kcat/Km (purified protein [6]) was 6300 M⁻¹ s⁻¹. The Km [7] was 83 ± 8 mM, the kcat [7] was 10.5 ± 0.4 s⁻¹ and the kcat/Km [7] was 130 M⁻¹ s⁻¹.

— paper PMC8401098, “The Uncommon Active Site of D-Amino Acid Transaminase from Haliscomenobacter hydrossis: Biochemical and Structural Insights into the New Enzyme” (Molecules, 2021)
